Experimental data: the nanobody polyreactivity screen of Harvey et al. (2022)

Assay: yeast display, Sf9 membrane polyspecificity reagent, FACS + sequencing; frameworks hold sequencing errors
Procedure, shortened: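 A synthetic nanobody library was expressed on Saccharomyces cerevisiae BJ5465 by galactose induction for 36–48 hours. The library was stained for 1 hour at 4 °C with 10% biotinylated, detergent-solubilized Sf9 membrane reagent and enriched with streptavidin microbeads before FACS. Low and high (top ~1%) gates were set on anti-HA fluorescence for expression and streptavidin fluorescence for reagent binding, and each polyreactivity label reflects the gate of origin.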

| Sequence | polyreactivity (PSR sort gate) |
| --- | --- |
| QVQLVESGGGLFQAGGSLRLSCAASGRIFQGYVMGRYRQAPGKERELVAVISRRGGITNYADSVKGRFTISSDNAKNSVYLQIYRLKPEDTAVYYCNSVTRVYNNGQYGYWGQGTQVTVSS | high polyreactivity |
| QVQLVESGGGLVQAGGSLRLSCAASGFIFPHYAMGGYRQAPGKERELIAAISKSGDSTYYADSVKGRFTISRDNAKNTVYLQMNSLKPEDTAVYYCARRGRSLRWKYDYWGQGTQVTVSS | low polyreactivity |
| QVQLVESGGGLVQAGGSLRLSCAASGFIFRYYTMGWYRQAPGKERELVAAISSGTSTHYADSVKGRYTISRNNAKNTVNLQMNSLKPEDTAVYYCAADLPYWYNRKPIFPYYYWGQGTQVTVSS | high polyreactivity |
| QVQLVETGGGLVQAGGSLRLSCAASGSIFVRNAMGWYRQAPGKERELVAAINRDGGRTYYADSVKGRFTISRDNAKNTVYLQMNSLKPEDTAVYYCNAGGVSFEYGYWGQGTQVTVSS | high polyreactivity |
| QVQLVESGGGLVQAGGSLSLSCAASGSIFASYAMGWYRQAPGKERELVAAITSDGNTYYADSVKGRFTISRDNAKNTVYLQMNSLKPEDTAVYYCAADRYSTYPYAKGTEFYYWGQGTQVTVSS | low polyreactivity |
| QVQLVESGGGLVQAGGSLRLSCAASGFTFPRYAMGWYRQAPGKERELVAAITVGGGRTYYADSVKGRFTISRDNAKNTVYLQMNSLKPEDTAVYYCAADSHASTYDYWGQGTQVTVSS | low polyreactivity |
| QVQLGESGGGLVQAGGSLRLSCAASGRIFRNNAMGWYRQAPGKERELVAAITWSGGSTYYADSVKGRFTISRDNAKNTVYLQMNSLKPEDTAVYYCNAGRGYKYSYTYDYWGQGTQVTLSS | low polyreactivity |
| QVQLVESGGGLVQAGGSLRLSCDASGSTFGIYAMGCYRQAPGKERELVAANSRSGDSTYYADSVKGRFTISRDNAKNTVDLQMNSLKPEDTAVYYCAADSYRLRYWAVTTHRVQYDYWGQGTQVTVSS | low polyreactivity |
| QVQLVESGGGLVQAGGSLRLSCAASGSTFVPYAMGWYRQAPGKERELVASITYSGGSTSYADSVKGRVTISRDTAKNTVYLQMNSLKPEDTAVNYCAAVPWVVYSGYDYWGQGTQVTVSS | low polyreactivity |
| EVHLVESGGGLVQPGGSLRLSCAASGDIYSRYRMGWYRQAPGKGREFVAAISGGSSTNYADSVKGRFTISRDNSKNTVYLQMNSLRAVDTAVSYCAAYKIDSDPRVYWGQGTQVTVSS | low polyreactivity |
| QVLLQESGGLLQAGCSLRMSCAASGSISTALSMVWYRQAPGKERELVATISDGASTNYADSVKGRFTISRVNAKNTVYLQMNSLKPEDTEVYYCAAQSQYRPDHRYWGQGTQVTVSS | high polyreactivity |
| QVQLVESGGGLVQAGGSLRLSCAASGRTFGRYAMGWYRQAHGKERELVAAISWSGGSTYYADSVKGRFTISRDNAKNTVYLQMNNLKPEDTAVYYCAAVTTDGVYAFDYWGQGTQVTVSS | low polyreactivity |
| QVQLVESGGGLVQAGGSLRLSCAASGLTFFKYTMGWYRQAPGKERELVAAISSSGGSTRYADSVKGRFTISRDNAKNTVYLQMNSLKPEDTAVYYCAKRGYTSSRRWIYDYWGQGTQVTVSS | high polyreactivity |
| QVQLVASGGGLVLAGGILRLSCAASGSTFVSNALGWYRLAPGKERALVAVITFRGGTTYYADSVKGRFTISRDNAKNTVYLQMNSLKPEDTAGYYCAARSYQYSYSFYWGQGTQVTVSS | high polyreactivity |
| QVQLVESGGGLVQAGGSLRLSCAASGSIFGYYAMGWYRQAPGKERELVAAISSSGASTYYADSVKGRFTISRDNAKNTVYLQMNSLKPEDTAVYYCNADRRYPTRGGYWGQGTQVTVSS | high polyreactivity |
| QVQLVESGGGLVQAGGSLRLSCAASGFTFSYYAMGWYRQAPGKERELVAAISRSGGSPYYADSVKGRFTISRDNAKYTVYLQMNSLKPADTAVYYCATDLSYRHGYWGQGTQVTVSS | high polyreactivity |
| QVQLVESAGGLVQAGGSLRLSCPASGGIFSWYHMGWYRQEPGKERELVAAISWSGGSTYYADSVKGRFTISRDNAKNTVYLLMNSLKPEDTAVYYCADYTADDYDYWGQGTQVTVSS | high polyreactivity |
| QVQLVESGGGLVQAGGSLRLSCAASGSTFFRNAMGWYRQAPGKERELVASITSGGNTKYADSVKGRFTISRDNAKNTVYLQMNSLKPEDTAVYYCAAKFYHFASYSRLYNYWGQGTQVTVSS | low polyreactivity |
| QVQLVESGRGLVQAGGSLRLSCAASGFIFYSNAMGWYRQAPGKERELVAAISRGGGSTYFADSLKGRFTISRDNAKNTVYLQMNSLKPEDTAVYYCAKRRLSPQDDYWGQGTQVTVSS | high polyreactivity |
| QVQLVESGGGLVQAGGSLRLSCAASGFIFDYSAMGWYRQAPGKERELVAAISHSGGTTYYADSVKGRFTISRDKAKNTVYLQMNSLKPEDTAVYYCNALYRKDFNSEYDYWGPGTQVTVSS | high polyreactivity |
| QLQLVESLGGLFQAGGILRLSCAASGRTLRGYGNGWYRQAPAKEREFVAAISTRGGRTYYADSVKGRFTISRDNAKNTVYLQMKILKPEDTAVYYCAAAYEPGDYDSWGQGTQVTVSS | low polyreactivity |
| QVQLVESGGGLVQAGGSLRLSCAASGNIIWGNAIGWYRQAPGKERELVAAISRRSGSTYYADSVKGRFTISRDIAKNTVYLQMNSLKPEDTAVYYCNTAGRVGTYDYWGQGTQVTVSS | high polyreactivity |

| Sequence | polyreactivity (PSR sort gate) |
| --- | --- |
| QVQIVESGGGLVQAGASLSLSCAASGSIFGTNAMGWYRQAPGKERELVAAISSAGASTYYADSVKGRFTISRDNAKNTVYLQMNSLKPEDTAVYYCARGYTYQSSSFYYWGQGTQVTVSS | low polyreactivity |
| QVQLVESGGGLVQAGGSLRLSCAASGRIFYAYAMGWYRQAPGKEREFVAAISWGGGSTNYADSVKGRFTISRDNAKNTVYLQMNSLKPEDTAVYYCATGFYYYLTKTIPYEYEYWGQGTQVTVSS | low polyreactivity |
| QDHLVESGGGLVQAGGSLRLSCAASGFIFRGNAMGWYRQPPGKERELVAAISRRGGTTYYADCVKGRFTISRDNAKNTDYLQMNSLKPEDTAVYYCAAYSPLSSGMDSWGQGTQVTVSS | high polyreactivity |
| QVQLVESGGGLVQAGGSLGLSCAASGRTFQQNAMGWYRQAPGKERELVAALNSRGGRTYYADYVKGRFTISRDNAKNTVYLQMNSLKPEDTAVYYCAARYYWGQGTEVTVSS | high polyreactivity |
| QVQLVESGGGLVLAGGSLRLSCAASGSTFARNAMGWYRHAPGKERELVAAISWNGGRTYYADSVKGRFTISRDNAKNTVYLQMNSLKPEDTAVYYCAAKYVKDYWSDFDYWGQGTQVTVSS | high polyreactivity |
| QVQLVESGGGLVQAGGSLRLSCAASGFTFFSNAMGWYRQAPGKERELVAAITSSGGSTYADSVKGRFTISRDNAKNTVYLQMNSLKPEDTAVYYCAAELYDYGDLYYSEYDYWGQGTQVTVSS | low polyreactivity |
| QVQLVESGGGLVQAGGSLRLSCAASGITSYYYTMGWYRQAPGKERELVAAITSGGSTYYADSVKGRFTISRDNAKNTVYLQMNSLKPEDNAVYYCTADNPRYRGSKYGPYDDYNYWGQGTQVTVSS | low polyreactivity |
| QVQLVESGGGLVQAGGSLRLSCAASGSIFVSNAMGWYRQAPGKERELVAAISQSGGSTYYADSVKGRFTISRDNAKNTVYLQMNSLKPEDTAVYYCATPIRSGFRIYDYWGQGTQVTVSS | low polyreactivity |
| QVQLVESGGGLVQAGGSLRLSCAASGRTFVGYAMGGYRQAPGQERELVANMTTSGGNTYYADSVKGRFTISRDNAKNTDYLQMNSLKPEDTAVYYCAARVYWVTRAVSTSYYYWGQGTQGTVSS | high polyreactivity |
| QVHLVESGGGLFQAGGSLRLRCAASGRIFRYNTMGWYRQAPGKERELVAAINSSGGRTYYADSVKGRFTISRDNAKNTVYLQMNSLKPDDTAVYYCAAVIYVLSGPGYDYWGQGTQVTVSE | high polyreactivity |
| QVQLVESAGGLVQAGGSLRLICAASGRIFGGNTRGWYREAPGKERELGASIRSRGGRTNYADSLNGRFTISRDTAKNTVYLQMNSLQPEDTSVYYCDATQIYRFDYWGQGTQVTVSS | low polyreactivity |
| QVQLVESGGGLVQAGGSLRLSCAASGRIFERNAMGGDRQAPGKEREFVAASSWSGGSTHYADSVKGRFTSSRDNAKNTVYVQMNSLKPEDTAVYFCAARRRKAGRPSDRYYYWGQGTQVTVSS | high polyreactivity |
| QVQLVESGGGLVQAGGSLRLSCAASGSTFALNAMGWYRQAPGKERELVAAITTGGHTYYADSVKGRFTISRDNAKNTDYLQMNSLKPEDTAVYYCATVFYFDYYYHYDYWGQGTQVTVSS | low polyreactivity |
| QVQLVESGGGLVQAGGSLRLSCAASGYTISRYAMGWYIQAHGKERQLVAAISSRGGSTYYADSVKGRFTISRDNAKNTVYLQMNSLNPEDTADYYWAEDYGVGYGIVGSYYWGQGTQVTVSS | high polyreactivity |
| QVQLVESGGGLVQAGGSLRLSCAASGRIFNRYAMGWYRQAPGKERELVASISLSGDSTYYADSVKGRFTISRDNAKNTVYLQMNSLKPEDTAVYYCAVEGLGAAVYAGDRYDYWGQGTQVTVSS | low polyreactivity |
| QVQLVESGAGIVQAGGSLRLSCAASGYTFQHYAMGWYRQAPGKERELVAAITRRGSGTYYADSVKGRFTISRDNAKNTVYLQMNSLKPEDTAVYYCGADWYYGDEYEYWGQGTQVNVSS | high polyreactivity |
| QVQLQESGGGLVQAGDSLRLSCAASGTISGRDSMGWYRQAPGKEREFVASIDFGTNTYYADSVKGRFTISRDNAKNTVYLQMNRLTAVYYCAAPDSQYSYWGQGTQVTESS | high polyreactivity |
| QVQLVESGGGLVQAGGSLRLSCAASGRIFDLYAMGWYRQAPGKERELVAAITWRGGSTYYADSVKGRFTISRDNAKNTVYLQMNSLKPEDTAVYYCAARSYYISPWRFDYWGQGTQVTVSS | high polyreactivity |
| QDQLVESGGGLVQAGGTLRLRCAATGSTVYPTYAMGWYRQAPGKEWELVATITGSGGYTYYADSVKGRFTISRDNAKNTVYLQINSLKPEDTAVYYCAADRWYSRYTRYGYRGQGTQVTVSS | low polyreactivity |
| QVQLVESGGGLVQAGGSLSLSCAASGSIFYGYAMGWYRQAPGKERELVAAITSGGRTYYADSVKGRFTISRDNAKNTVYLQMNSLKPEDTAVYYCNAVYRKTSYGYWGQGTQVTVSS | high polyreactivity |
| QVQLVESGGGLVQAGCSLRLTCAASGSTFKKYAKGWYRQAPGKERDFVAAISRGGRTYYAYSVKGRFTISRDNAKNTVYLQMNSLKPEDTAVYYCAAETFGYQEVYFWGQGTQVTVSS | high polyreactivity |
